# Measurements taken from patent US20190119318A1.
# Assays:
# [1] = target: human polyclonal IgG (Gammanorm) (human); experiment: column DBC; base C3; ligand […]
# [2] = target: human polyclonal IgG (Gammanorm) (human); experiment: column DBC; base H35; ligand […]
# [3] = target: human polyclonal IgG (Gammanorm) (human); experiment: column DBC; base A56-2; ligand 12.5 mg/ml
# [4] = target: human polyclonal IgG (Gammanorm) (human); experiment: column DBC; base A20; ligand 6.4 mg/ml
# [5] = target: human polyclonal IgG (Gammanorm) (human); experiment: SPR; vs reference Zvar6; 0.5 M NaOH
# [6] = target: human polyclonal IgG (Gammanorm) (human); experiment: column DBC; base H31; ligand 20.0 mg/ml
# [7] = target: human polyclonal IgG (Gammanorm) (human); experiment: column DBC; base A62a; ligand […]
# [8] = target: human polyclonal IgG (Gammanorm) (human); experiment: column DBC; base A63b; ligand 16.7 mg/ml
# [9] = target: human polyclonal IgG (Gammanorm) (human); experiment: column DBC; base H35; ligand 20.3 mg/ml
# [10] = target: human polyclonal IgG (Gammanorm) (human); experiment: column DBC; base A33; ligand […]; conditions: ligand content 6.5 mg/ml
# [11] = target: human polyclonal IgG (Gammanorm) (human); experiment: column DBC; base A63b; ligand 6.4 mg/ml
# [12] = target: human polyclonal IgG (Gammanorm) (human); experiment: column DBC; base P10; ligand 19.0 mg/ml
# [13] = target: human polyclonal IgG (Gammanorm) (human); experiment: column DBC; base A56; ligand 7.9 mg/ml
# [14] = target: human polyclonal IgG (Gammanorm) (human); experiment: column DBC; base A56-2; ligand 19.2 mg/ml
# [15] = target: human polyclonal IgG (Gammanorm) (human); experiment: column DBC; base H31; ligand […]
# [16] = target: human polyclonal IgG (Gammanorm) (human); experiment: SPR; after 100 CIP cycles 0.5 M NaOH
# [17] = target: human polyclonal IgG (Gammanorm) (human); experiment: column DBC; base A54; ligand […]; conditions: ligand content 6.7 mg/ml
# [18] = target: human polyclonal IgG (Gammanorm) (human); experiment: column DBC; base A56; ligand 15.2 mg/ml
# [19] = target: human polyclonal IgG (Gammanorm) (human); experiment: column DBC; base A56-2; ligand […]
# [20] = target: human polyclonal IgG (Gammanorm) (human); experiment: column DBC; base A63b; ligand 10.6 mg/ml
# [21] = target: human polyclonal IgG (Gammanorm) (human); experiment: column DBC; base C4; ligand 11.2 mg/ml
# [22] = target: human polyclonal IgG (Gammanorm) (human); experiment: column DBC; base A56; ligand 19.2 mg/ml
# [23] = target: human polyclonal IgG (Gammanorm) (human); experiment: column DBC; base S9; ligand 18.4 mg/ml
# [24] = target: human polyclonal IgG (Gammanorm) (human); experiment: column DBC; base A20; ligand […]
# [25] = target: human polyclonal IgG (Gammanorm) (human); experiment: column DBC; base A54; ligand 21.1 mg/ml
# [26] = target: human polyclonal IgG (Gammanorm) (human); experiment: column DBC; base A20; ligand 21.1 mg/ml
# [27] = target: human polyclonal IgG (Gammanorm) (human); experiment: column DBC; base A38; ligand 11.6 mg/ml
# [28] = target: human polyclonal IgG (Gammanorm) (human); experiment: column DBC; base H35; ligand 12.3 mg/ml
# [29] = target: human polyclonal IgG (Gammanorm) (human); experiment: column DBC; base A38; ligand […]
# [30] = target: human polyclonal IgG (Gammanorm) (human); experiment: column DBC; base A38; ligand 15.8 mg/ml
# [31] = target: human polyclonal IgG (Gammanorm) (human); experiment: column DBC; base C3; ligand 11.9 mg/ml
# [32] = target: human polyclonal IgG (Gammanorm) (human); experiment: column DBC; base H40; ligand 23.0 mg/ml
# [33] = target: human polyclonal IgG (Gammanorm) (human); experiment: column DBC; base A62a; ligand 9.6 mg/ml
# [34] = target: human polyclonal IgG (Gammanorm) (human); experiment: column DBC; base H40; ligand […]; conditions: ligand content 6.9 mg/ml
# [35] = target: human polyclonal IgG (Gammanorm) (human); experiment: column DBC; base C3; ligand 15.1 mg/ml
# [36] = target: human polyclonal IgG (Gammanorm) (human); experiment: column DBC; base A56; ligand […]; conditions: ligand content 7.1 mg/ml
# [37] = target: human polyclonal IgG (Gammanorm) (human); experiment: column DBC; base C4; ligand 15.2 mg/ml
substance,measurement,setting,value
"Zvar(Q9A,N11E,Q40V,A42K,N43A,L44I)6 (designed binder)",Qb10% 2.4 min,[1],48 mg/mL
same,Qb10% 6 min,[1],59 mg/mL
same,Qb10% 2.4 min,[2],36 mg/mL
same,Qb10% 6 min,[2],49 mg/mL
same,Qb10% 2.4 min,[3],59 mg/mL
same,Qb10% 6 min,[3],72 mg/mL
same,Qb10% 2.4 min,[4],41 mg/mL
same,Qb10% 6 min,[4],56 mg/mL
same,capacity relative to ref. 100 cycles,[5],1.3
same,Qb10% 2.4 min,[6],31 mg/mL
same,Qb10% 6 min,[6],52 mg/mL
same,Qb10% 2.4 min,[7],62 mg/mL
same,Qb10% 6 min,[7],84 mg/mL
same,Qb10% 2.4 min,[8],53 mg/mL
same,Qb10% 6 min,[8],69 mg/mL
same,Qb10% 2.4 min,[9],20 mg/mL
same,Qb10% 6 min,[9],43 mg/mL
same,Qb10% 2.4 min,[10],44 mg/mL
same,Qb10% 6 min,[10],53 mg/mL
same,Qb10% 2.4 min,[11],42 mg/mL
same,Qb10% 6 min,[11],46 mg/mL
same,Qb10% 6 min,[12],76 mg/mL
same,Qb10% 2.4 min,[13],47 mg/mL
same,Qb10% 6 min,[13],55 mg/mL
same,Qb10% 2.4 min,[14],61 mg/mL
same,Qb10% 6 min,[14],82 mg/mL
same,Qb10% 2.4 min,[15]; ligand content 6.5 mg/ml,37 mg/mL
same,Qb10% 6 min,[15]; ligand content 6.5 mg/ml,38 mg/mL
same,Qb10% 2.4 min,[15]; ligand content 10.4 mg/ml,50 mg/mL
same,Qb10% 6 min,[15]; ligand content 10.4 mg/ml,61 mg/mL
same,remaining capacity 100 cycles,[16],87%
same,Qb10% 2.4 min,[17],38 mg/mL
same,Qb10% 6 min,[17],46 mg/mL
same,Qb10% 2.4 min,[18],48 mg/mL
same,Qb10% 6 min,[18],76 mg/mL
same,Qb10% 2.4 min,[19],50 mg/mL
same,Qb10% 6 min,[19],58 mg/mL
same,Qb10% 2.4 min,[20],49 mg/mL
same,Qb10% 6 min,[20],60 mg/mL
same,Qb10% 2.4 min,[21],62 mg/mL
same,Qb10% 6 min,[21],74 mg/mL
same,Qb10% 2.4 min,[22],55 mg/mL
same,Qb10% 6 min,[22],80 mg/mL
same,Qb10% 2.4 min,[23],56 mg/mL
same,Qb10% 6 min,[23],75 mg/mL
same,Qb10% 2.4 min,[24],38 mg/mL
same,Qb10% 6 min,[24],64 mg/mL
same,Qb10% 2.4 min,[25],38 mg/mL
same,Qb10% 6 min,[25],65 mg/mL
same,Qb10% 2.4 min,[26],44 mg/mL
same,Qb10% 6 min,[26],43 mg/mL
same,Qb10% 2.4 min,[27],48 mg/mL
same,Qb10% 6 min,[27],72 mg/mL
same,Qb10% 2.4 min,[28],31 mg/mL
same,Qb10% 6 min,[28],54 mg/mL
same,Qb10% 2.4 min,[29],47 mg/mL
same,Qb10% 6 min,[29],57 mg/mL
same,Qb10% 2.4 min,[30],36 mg/mL
same,Qb10% 6 min,[30],62 mg/mL
same,Qb10% 2.4 min,[31],51 mg/mL
same,Qb10% 6 min,[31],73 mg/mL
same,Qb10% 2.4 min,[32],41 mg/mL
same,Qb10% 6 min,[32],65 mg/mL
same,Qb10% 2.4 min,[33],56 mg/mL
same,Qb10% 6 min,[33],72 mg/mL
same,Qb10% 2.4 min,[34],50 mg/mL
same,Qb10% 6 min,[34],56 mg/mL
same,Qb10% 2.4 min,[35],43 mg/mL
same,Qb10% 6 min,[35],61 mg/mL
same,Qb10% 2.4 min,[36],48 mg/mL
same,Qb10% 6 min,[36],57 mg/mL
same,Qb10% 2.4 min,[37],57 mg/mL
same,Qb10% 6 min,[37],82 mg/mL
